Laboratory results: PMC9482650, “Quantitative fragmentomics allow affinity mapping of interactomes” (Nature Communications, 2022)
Changes are numbered by the printed parent chain. Values belong to the binder of their own block, whether it stands above or below them.

Legend:
Experiment in all cases: holdup assay
Parameters in all cases: key: below the threshold = too weak to quantify, mostly under pKd 3.1 to 4
[1] = molecular target: T1, ARHGAP21, Q5T5U3
T1 sequence (Q5T5U3 45-169, limits assumed, looked up): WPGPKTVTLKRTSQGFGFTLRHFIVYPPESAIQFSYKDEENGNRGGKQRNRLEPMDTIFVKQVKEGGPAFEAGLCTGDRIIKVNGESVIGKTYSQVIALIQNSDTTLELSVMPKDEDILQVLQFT

[2] = molecular target: DLG1_1, Q12959
[3] = molecular target: DLG1_2, Q12959
[4] = molecular target: DLG1_3, Q12959
[5] = molecular target: DLG2_2, Q15700
[6] = molecular target: T2, DLG3_3, Q92796
T2 sequence (Q92796 374-475, limits assumed, looked up): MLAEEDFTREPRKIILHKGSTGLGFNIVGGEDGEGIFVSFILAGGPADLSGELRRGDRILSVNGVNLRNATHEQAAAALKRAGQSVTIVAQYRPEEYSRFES

[7] = molecular target: FRMPD4, Q14CM0
[8] = molecular target: GRASP, Q7Z6J2
[9] = molecular target: GRIP2_3, Q9C0E4
[10] = molecular target: GRIP2_5, Q9C0E4
[11] = molecular target: GRIP2_7, Q9C0E4
[12] = molecular target: IL16_3, Q14005
[13] = molecular target: Inadl_10, Q8NI35
[14] = molecular target: Inadl_5, Q8NI35
[15] = molecular target: LDB3, O75112
[16] = molecular target: T3, LIN7A, O14910
T3 sequence (O14910 103-200, limits assumed, looked up): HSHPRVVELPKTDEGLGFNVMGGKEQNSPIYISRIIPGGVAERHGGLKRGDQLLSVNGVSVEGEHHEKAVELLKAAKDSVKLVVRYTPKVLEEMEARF

[17] = molecular target: T4, LIN7B, Q9HAP6
T4 sequence (Q9HAP6 88-185, limits assumed, looked up): T3 sequence (O14910 103-200, limits assumed, looked up) with S2A, V20I, I35V, E42D, H65Q, K77Q, D78G, K89R

[18] = molecular target: LNX1_3, Q8TBB1
[19] = molecular target: MAGI3_2, Q5TCQ9
[20] = molecular target: MAST2, Q6P0Q8
[21] = molecular target: T5, MPDZ_5, O75970
T5 sequence (O75970 695-796, limits assumed, looked up): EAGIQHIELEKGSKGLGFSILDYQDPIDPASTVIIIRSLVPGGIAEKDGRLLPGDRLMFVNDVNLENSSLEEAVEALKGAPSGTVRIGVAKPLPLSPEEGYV

[22] = molecular target: T6, PARD3B_1, Q8TEW8
T6 sequence (Q8TEW8 196-299, limits assumed, looked up): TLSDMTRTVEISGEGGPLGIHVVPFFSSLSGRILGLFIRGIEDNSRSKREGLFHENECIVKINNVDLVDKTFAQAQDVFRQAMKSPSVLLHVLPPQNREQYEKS

[23] = molecular target: T7, PCLO, Q9Y6V0
T7 sequence (Q9Y6V0 4491-4600, limits assumed, looked up): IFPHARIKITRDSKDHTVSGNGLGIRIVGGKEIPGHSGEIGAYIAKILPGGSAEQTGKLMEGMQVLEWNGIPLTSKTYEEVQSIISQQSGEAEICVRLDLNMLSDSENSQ

[24] = molecular target: T8, PDZD7_3, Q9H5P4
T8 sequence (Q9H5P4 857-944, limits assumed, looked up): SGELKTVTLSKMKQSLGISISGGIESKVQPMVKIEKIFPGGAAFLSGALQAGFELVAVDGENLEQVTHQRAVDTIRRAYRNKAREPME

[25] = molecular target: PICK1, Q9NRD5
[26] = molecular target: T9, SNTG2, Q9NY99
T9 sequence (Q9NY99 68-166, limits assumed, looked up): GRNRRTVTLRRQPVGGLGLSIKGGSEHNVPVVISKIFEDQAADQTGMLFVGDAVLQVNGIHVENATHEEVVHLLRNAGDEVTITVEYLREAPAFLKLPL

[27] = molecular target: TJP1_3, Q07157
[28] = molecular target: T10, TX1BP3, O14907
T10 sequence (O14907 10-122, limits assumed, looked up): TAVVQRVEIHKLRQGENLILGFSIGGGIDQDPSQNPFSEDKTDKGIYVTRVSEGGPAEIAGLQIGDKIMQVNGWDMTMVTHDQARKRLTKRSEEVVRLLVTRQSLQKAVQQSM

[29] = plain residues with an end cap or a label only (N-terminal biotin on a linker: ado-ado)
[30] = plain residues with an end cap or a label only (N-terminal biotin on a linker: ahx)
[31] = plain residues with an end cap or a label only (N-terminal biotin on a linker: ttds)

Chain of LDB3, O75112 (O75112 1-94): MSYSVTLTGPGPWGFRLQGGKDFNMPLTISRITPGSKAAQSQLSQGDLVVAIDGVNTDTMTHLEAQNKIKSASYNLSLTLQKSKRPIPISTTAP
Chain of PICK1, Q9NRD5 (Q9NRD5 17-115): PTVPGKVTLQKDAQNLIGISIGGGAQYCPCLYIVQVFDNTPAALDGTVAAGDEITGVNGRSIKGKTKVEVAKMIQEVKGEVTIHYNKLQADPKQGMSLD
Chain of LNX1_3, Q8TBB1 (Q8TBB1 500-596): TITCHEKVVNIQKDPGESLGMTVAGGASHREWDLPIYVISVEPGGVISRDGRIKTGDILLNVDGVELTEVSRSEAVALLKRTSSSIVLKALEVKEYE
Chain of MAST2, Q6P0Q8 (Q6P0Q8 1099-1202): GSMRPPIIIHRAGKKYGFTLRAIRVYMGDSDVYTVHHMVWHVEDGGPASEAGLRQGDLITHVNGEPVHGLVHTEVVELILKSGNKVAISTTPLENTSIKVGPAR
Chain of TJP1_3, Q07157 (Q07157 416-512): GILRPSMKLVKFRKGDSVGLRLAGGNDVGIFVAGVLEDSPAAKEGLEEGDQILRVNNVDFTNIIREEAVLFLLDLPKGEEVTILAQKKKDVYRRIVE
Chain of GRIP2_5, Q9C0E4 (Q9C0E4 544-642): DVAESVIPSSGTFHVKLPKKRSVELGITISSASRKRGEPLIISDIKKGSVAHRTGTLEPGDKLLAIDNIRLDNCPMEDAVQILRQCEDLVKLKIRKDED
Chain of GRIP2_3, Q9C0E4 (Q9C0E4 238-339): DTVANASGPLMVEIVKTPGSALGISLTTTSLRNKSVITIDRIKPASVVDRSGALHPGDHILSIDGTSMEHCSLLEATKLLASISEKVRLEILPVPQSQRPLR
Chain of GRASP, Q7Z6J2 (Q7Z6J2 96-193): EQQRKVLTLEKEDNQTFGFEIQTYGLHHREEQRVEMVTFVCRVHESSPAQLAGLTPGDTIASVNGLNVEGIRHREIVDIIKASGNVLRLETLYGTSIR
Chain of Inadl_5, Q8NI35 (Q8NI35 673-780): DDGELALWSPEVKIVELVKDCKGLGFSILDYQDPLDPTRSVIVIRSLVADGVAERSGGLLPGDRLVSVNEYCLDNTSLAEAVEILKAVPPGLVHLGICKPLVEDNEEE
Chain of DLG2_2, Q15700 (Q15700 189-283): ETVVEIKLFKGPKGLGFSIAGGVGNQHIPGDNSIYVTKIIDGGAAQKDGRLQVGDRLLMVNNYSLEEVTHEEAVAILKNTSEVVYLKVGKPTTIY
Chain of GRIP2_7, Q9C0E4 (Q9C0E4 934-1023): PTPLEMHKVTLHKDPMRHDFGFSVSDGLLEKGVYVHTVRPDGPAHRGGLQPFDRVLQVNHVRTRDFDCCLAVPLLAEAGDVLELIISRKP
Chain of MAGI3_2, Q5TCQ9 (Q5TCQ9 398-503): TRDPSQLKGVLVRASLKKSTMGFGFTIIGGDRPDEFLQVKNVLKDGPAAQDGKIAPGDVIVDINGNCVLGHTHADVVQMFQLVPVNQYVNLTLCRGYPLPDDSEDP
Chain of FRMPD4, Q14CM0 (Q14CM0 67-160): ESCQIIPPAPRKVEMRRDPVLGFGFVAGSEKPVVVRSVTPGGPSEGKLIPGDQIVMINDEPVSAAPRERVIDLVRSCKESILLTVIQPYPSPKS
Chain of Inadl_10, Q8NI35 (Q8NI35 1673-1763): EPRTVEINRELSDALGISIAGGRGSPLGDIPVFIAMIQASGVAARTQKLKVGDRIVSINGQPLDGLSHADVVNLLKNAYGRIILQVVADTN
Chain of IL16_3, Q14005 (Q14005 1107-1207): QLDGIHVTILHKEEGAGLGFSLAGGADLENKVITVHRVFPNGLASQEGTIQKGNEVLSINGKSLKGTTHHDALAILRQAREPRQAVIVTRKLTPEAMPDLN

pKd [1, 29]: 4.06 | pKd [2, 29]: below the threshold | pKd [3, 29]: 3.97 | pKd [4, 29]: below the threshold | pKd [5, 29]: 3.56 | pKd [6, 29]: below the threshold | pKd [7, 29]: below the threshold | pKd [8, 29]: below the threshold | pKd [9, 29]: below the threshold | pKd [10, 29]: below the threshold | pKd [11, 29]: below the threshold | pKd [12, 29]: below the threshold | pKd [13, 29]: below the threshold | pKd [14, 29]: below the threshold | pKd [15, 29]: below the threshold | pKd [16, 29]: below the threshold | pKd [17, 29]: below the threshold | pKd [18, 29]: below the threshold | pKd [19, 29]: 4.07 | pKd [20, 29]: 4.03 | pKd [21, 29]: below the threshold | pKd [22, 29]: below the threshold | pKd [23, 29]: below the threshold | pKd [24, 29]: 4.58 | pKd [25, 29]: 3.99 | pKd [26, 29]: 3.52 | pKd [27, 29]: below the threshold | pKd [28, 29]: below the threshold
Binder: GKKSVKHSKI [ACOT6, Q3I5F7]

pKd [1, 30]: below the threshold | pKd [2, 30]: below the threshold | pKd [3, 30]: below the threshold | pKd [4, 30]: below the threshold | pKd [5, 30]: below the threshold | pKd [6, 30]: below the threshold | pKd [7, 30]: below the threshold | pKd [8, 30]: 5.03 | pKd [9, 30]: below the threshold | pKd [10, 30]: below the threshold | pKd [11, 30]: below the threshold | pKd [12, 30]: below the threshold | pKd [13, 30]: below the threshold | pKd [14, 30]: below the threshold | pKd [15, 30]: below the threshold | pKd [16, 30]: below the threshold | pKd [17, 30]: below the threshold | pKd [18, 30]: below the threshold | pKd [19, 30]: below the threshold | pKd [20, 30]: 4.25 | pKd [21, 30]: below the threshold | pKd [22, 30]: below the threshold | pKd [23, 30]: below the threshold | pKd [24, 30]: 3.51 | pKd [25, 30]: below the threshold | pKd [26, 30]: below the threshold | pKd [27, 30]: below the threshold | pKd [28, 30]: 3.65
Binder: GIFPTLTSPL [SHROOM3, Q8TF72]

pKd [1, 31]: 4.88 | pKd [2, 31]: below the threshold | pKd [3, 31]: below the threshold | pKd [4, 31]: below the threshold | pKd [5, 31]: below the threshold | pKd [6, 31]: below the threshold | pKd [7, 31]: 4.28 | pKd [8, 31]: below the threshold | pKd [9, 31]: below the threshold | pKd [10, 31]: below the threshold | pKd [11, 31]: below the threshold | pKd [12, 31]: below the threshold | pKd [13, 31]: below the threshold | pKd [14, 31]: below the threshold | pKd [15, 31]: 3.99 | pKd [16, 31]: below the threshold | pKd [17, 31]: below the threshold | pKd [18, 31]: below the threshold | pKd [19, 31]: below the threshold | pKd [20, 31]: 6.04 | pKd [21, 31]: below the threshold | pKd [22, 31]: below the threshold | pKd [23, 31]: below the threshold | pKd [24, 31]: below the threshold | pKd [25, 31]: below the threshold | pKd [26, 31]: below the threshold | pKd [27, 31]: below the threshold | pKd [28, 31]: 5.99
Binder: NQLAWFDTDL [CTNNB1, P35222]
